Series [1] has as its target T1, TGF-β1 (Homo sapiens, UniProt P01137 P01137:279-390). As to the kind of experiment: SPR; +. Conditions: tags: Recombinant Human TGF-β1, Peprotech; chain copies: 2 (homodimer, inferred).
The target in series [2] is T1, TGF-β1. The series is described as follows: SPR; receptor-binding inhibition, 10 nM:30 nM. The conditions noted are these: tags: Recombinant Human TGF-β1, Peprotech; chain copies: 2 (homodimer, inferred). Here is the method: Measurement of Inhibitory Activity of Aptamer Against TGF-β1-2 Whether or not the nucleic acids of SEQ ID NOs: 6, 9, 19, 21, 26 inhibit the binding of TGF-β1 to the TGF-β receptor was evaluated by surface plasmon resonance method. For the measurement, Biacore T200 manufactured by GE Healthcare was used, and the measurement was performed by the method shown below. About 1500 RU of protein A was immobilized on the surface of a sensor chip of CM4 chip by using an amine coupling kit. 20 μL of Fc fusion TRII receptor (R&D) adjusted to 30 nM was injected as an analyte at a flow rate of 20 μL/min. As a result, the Fc fusion TRII receptor was immobilized on the surface of the sensor chip of the CM4 chip via protein A. Furthermore, a mixed solution of TGF-β1 (4 nM) or TGF-β1 (10 nM), and nucleic acid (30 nM) was injected. Solution A was used as the running buffer. Based on the RU value of a sample injected with TGF-β1 alone and the RU value before injection of TGF-β1, the effect of suppressing an increase in the RU value when TGF-β1 was injected in the presence of nucleic acid was calculated as the effect of inhibiting the binding of TGF-β1 to the TRII receptor.

The target in series [3] is T1, TGF-β1. The series is described as follows: cell_activity; SBE-luciferase HEK293, 80 pM:20 nM. The conditions noted are these: tags: Recombinant Human TGF-β1, Peprotech; chain copies: 2 (homodimer, inferred). On the procedure: (§1) Whether the nucleic acids of SEQ ID NOs: 4-13, 17-22, 26-28 inhibit the activity of TGF-β1 was evaluated by a cell assay system that monitors Smad signaling pathway known to be activated by the stimulation of TGF-β. To be specific, photinus luciferase equipped with SBE (Smad-binding element) in the promoter region was used as a reporter (pGL4.48[luc2P/SBE/Hygro] Vector, Promega KK). Together with this SBE-induced photinus luciferase reporter plasmid, a renillaluciferase expression plasmid (pGL4.74[hRluc/TK] Vector, Promega KK) was mixed at a ratio of 20:1 as a standardized control for transfection efficiency, and transfected into HEK293 cells. The transfected HEK293 cells were re-seeded in a 96-well plate and cultured until confluent. TGF-β1 and a mixture of nucleic acid aptamers of SEQ ID NOs: 4-13, 17-22, 26-28 synthesized using T7 RNA polymerase (Y639F) were added thereto to respective final concentrations of 80 pM, 20 nM, and the cells were cultured for 3 hr. Thereafter, the expression levels of photinus luciferase and renillaluciferase were confirmed using Dual-Luciferase (registered trade mark) Reporter Assay System (Promega KK). The measurement value of photinus luciferase in each sample was corrected with the measured value of renillaluciferase, and the relative expression level of each sample was calculated by setting the ratio of photinus luciferase and renillaluciferase in a sample free of addition of TGF-β1 as 1. […] When a nucleic acid pool of 35N, 40N or 50N (SEQ ID NO: 14, 1, 23) was used as a negative control and a known TGF-β antibody (R&D, MAB1835) was used as a positive control, the same treatment and measurement were performed.

In series [4] the target is T1, TGF-β1. As to the kind of experiment: SPR. The conditions noted are these: tags: Recombinant Human TGF-β1, Peprotech; chain copies: 2 (homodimer, inferred).
Series [5] addresses T1, TGF-β1. The series is described as follows: cell_activity; 80 pM:20 nM. The conditions noted are these: tags: Recombinant Human TGF-β1, Peprotech; chain copies: 2 (homodimer, inferred); G4 (predicted). Here is the method: as §1
Whether or not these nucleic acids inhibit the activity of TGF-β1 was evaluated by a luciferase reporter assay similar to that in Example 4, as in Example 1.

Where only a bound is given, the exact number is not on record here.

T1 sequence (P01137 279-390, one chain of several): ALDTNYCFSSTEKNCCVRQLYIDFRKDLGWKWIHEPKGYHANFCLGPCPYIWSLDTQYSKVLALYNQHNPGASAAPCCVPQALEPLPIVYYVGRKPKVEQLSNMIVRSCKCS

B1: SEQ ID NO: 13 (ssRNA)
RNA: GGGAUCCGCAUCUAGAGUACACUAGUCACAUUGCGUGUACAUUACUCUGCGCAAUCGAUAAACGUCUACUGAAGCUAUCA
modifications: 2'-F all pyrimidines (U,C)
Take B1: the binding result with TGF-β1 [1] is “binds”.

B2: SEQ ID NO: 6 (ssRNA)
RNA: GGGAUCCGCAUCUAGAGUACUUGUAUAAGUGGAGGGCGAGACUUGGGAGGGGCGAAUUGAAACGUCUACUGAAGCUAUCA
modifications: 2'-F all pyrimidines (U,C)
Take B2: in the series with TGF-β1 [2], the binding signal was found to be 75 % inhibition. In addition, the activity with TGF-β1 [3] was determined as 98 % inhibition.

B3: SEQ ID NO: 10 (ssRNA)
RNA: GGGAUCCGCAUCUAGAGUACGAUGCAUGUUUUUAUAAAGUAUUGUUAUGUAAUGCAUCAAAACGUCUACUGAAGCUAUCA
modifications: 2'-F all pyrimidines (U,C)
B3: the qualitative with TGF-β1 [4] was at most 10 RU.

B4: SEQ ID NO: 12 (ssRNA)
RNA: GGGAUCCGCAUCUAGAGUACCUAGAGGUGACUUGGGACGCGAGUUAUAAGGGAAUAGUCCAACGUCUACUGAAGCUAUCA
modifications: 2'-F all pyrimidines (U,C)
In the case of B4, the qualitative with TGF-β1 [4] is at most 10 RU.

B5: SEQ ID NO: 9 (ssRNA)
RNA: GGGAUCCGCAUCUAGAGUACCAUAAGGGUGGGGAGACUUGGGAGAGGGCAAAGAAGACUAAACGUCUACUGAAGCUAUCA
modifications: 2'-F all pyrimidines (U,C)
With B5, in the series with TGF-β1 [2], the binding signal is 70.2 % inhibition. Also, the activity with TGF-β1 [3] was 80 % inhibition.

B6: SEQ ID NO: 7 (ssRNA)
RNA: GGGAUCCGCAUCUAGAGUACGAAUAGUAAGGGAAUGACUCUCGGACCAAUGUAUUGCUAUAACGUCUACUGAAGCUAUCA
modifications: 2'-F all pyrimidines (U,C)
As for B6, the qualitative in the series with TGF-β1 [4] was at most 10 RU.

B7: SEQ ID NO: 35 (ssRNA)
RNA: GGGAGAACUUGGAGCUCCUGAAUAAGGGAGGGGAGACUUGUGGAGGGCAAGAGUGCGACGUCAGUC
modifications: 2'-F all pyrimidines (U,C)
With B7, in the series with TGF-β1 [5], the activity was 100 % inhibition.

B8: SEQ ID NO: 37 (ssRNA)
RNA: GGGAGAACUUGGAGCUCCUGAAUAAGGGAGGGGAGACUUGUGGUGGGCAAGAGUGCGACGUCAGUC
modifications: 2'-F all pyrimidines (U,C)
Consider B8, for which the activity with TGF-β1 [5] was 100 % inhibition.

B9: SEQ ID NO: 40 (ssRNA)
RNA: GGGAGAACUUGGAGCUCCUGAAUAAGGGAGGGGAGACUUGUGGAGGGCAGAAGUGCGACGUCAGUC
modifications: 2'-F all pyrimidines (U,C)
On to B9, for which the activity with TGF-β1 [5] was 100 % inhibition.

B10: SEQ ID NO: 38 (ssRNA)
RNA: GGGAGAACUUGGAGCUCCUGAAUAAGGGUGGGGAGACUUGUGGAGGGCAAGAGUGCGACGUCAGUC
modifications: 2'-F all pyrimidines (U,C)
With B10, in the series with TGF-β1 [5], the activity was 100 % inhibition.

B11: SEQ ID NO: 27 (ssRNA)
RNA: GGGAAUGCACUAGUGUUCAACAUUUAGCAACACAAGUCGUCCCCCACGGCAAGCAGUCCUCAAUCCUGACAAGCUUGCACGUCGAGUCAG
modifications: 2'-F all pyrimidines (U,C)
In the case of B11, in the series with TGF-β1 [1], the binding result is reported as “binds”.

B12: SEQ ID NO: 26 (ssRNA)
RNA: GGGAAUGCACUAGUGUUCAACCCCGACCAAUAGCAGCCCGUCUUUAACUAUUGGAAUCGCAUACGGGCCCAAGCUUGCACGUCGAGUCAG
modifications: 2'-F all pyrimidines (U,C)
Consider B12, for which, in the series with TGF-β1 [2], the binding signal was determined as 84.3 % inhibition. Also, in the series with TGF-β1 [3], the activity is 81 % inhibition.

B13: SEQ ID NO: 17 (ssRNA)
RNA: GGGAGAACUUGGAGCUGAUGUCUGGAGUCCCCAUAUAUCACGUACAGUGUAGUGCGACGUCAGUC
modifications: 2'-F all pyrimidines (U,C)
For the molecule B13, the binding result in the series with TGF-β1 [1] was “binds”.

B14: SEQ ID NO: 8 (ssRNA)
RNA: GGGAUCCGCAUCUAGAGUACGAUGUGCUUGUGCUGAAAUUAGAUUUCGCCGACUUUCCCUAACGUCUACUGAAGCUAUCA
modifications: 2'-F all pyrimidines (U,C)
With B14, the qualitative with TGF-β1 [4] was at most 10 RU.

These data come from patent US20220282255, “APTAMER FOR TGF-BETA1 AND USE OF SAME” (RIBOMIC INC., published 2022).
